Assay results taken from the supplement of paper PMC10126150.
± gives the standard deviation of the averaged measurements.

System: ATP
Assay: switch fluorescence ratio, 500 uM ATP over buffer (Cy3 cluster intensity, sum of 5 cycles each) (fold (ratio)); higher = stronger signal-on switching upon ATP binding; sequences stand for … in TCGTCGGCAGCGTCAGATGTGTATAAGAGACAGTTTTTTTTTTTTTTTTTTTTTTTTT…TC
Conditions: aptamer strand: ATP DNA aptamer (quencher-CACCTGGGGGAGTATTGCGGAGGAAGG + anchor), 100 nM annealed; ATP concentration: 500 uM
Outline: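 For every switch-domain sequence, the fluorescence ratio is the mean of per-cluster values, each being summed target-cycle Cy3 intensity over summed buffer-cycle Cy3 intensity. Clusters outside 100-1000 RFU were excluded. On a modified Illumina MiSeq flow-cell, the Cy3-labelled switching-strand clusters were annealed to 100 nM quencher-labelled ATP aptamer, imaged in selection buffer and then after 15 min with 500 uM ATP at 22 °C. Five such cycles were run, with NaOH stripping and re-annealing between them.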
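Further: ATP exposure 15 min at 22 °C before imaging.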

With AATTTTATCT as the sequence, how does the switch fluorescence ratio read?
The switch fluorescence ratio was 0.99 ± 0.014.

How did the switch fluorescence ratio turn out when AATTTTGTTA was run?
The switch fluorescence ratio was 0.976 ± 0.043.

AATTTTTAGA was tested. Which switch fluorescence ratio did it give?
Its switch fluorescence ratio is 0.987 ± 0.034.

How did the switch fluorescence ratio turn out when AATTTTTGTA was run?
The switch fluorescence ratio was 0.984 ± 0.018.

Which switch fluorescence ratio does the source give for AATTTTTTCA here?
Its switch fluorescence ratio is 0.99 ± 0.018.

How did the switch fluorescence ratio turn out when AATTTTTTCG was run?
Its switch fluorescence ratio is 0.992 ± 0.025.

ACAAACTGGT was tested. Which switch fluorescence ratio did it give?
Its switch fluorescence ratio is 1 ± 0.019.

ACAAAGAGTC was tested. Which switch fluorescence ratio did it give?
The switch fluorescence ratio was 0.9932 ± 0.0083.

How did the switch fluorescence ratio turn out when ACAAAGGTGT was run?
The switch fluorescence ratio was 1.29 ± 0.015.

With ACAACGCTTG as the sequence, how does the switch fluorescence ratio read?
Its switch fluorescence ratio is 1.01 ± 0.032.

How did the switch fluorescence ratio turn out when ACAAGATGGG was run?
Its switch fluorescence ratio is 1.09 ± 0.082.

With ACAAGGGGGA as the sequence, how does the switch fluorescence ratio read?
The switch fluorescence ratio was 1.02 ± 0.013.

For ACAAGGTGAT, which switch fluorescence ratio is on record?
Its switch fluorescence ratio is 1.15 ± 0.024.

For ACAAGTATCA, which switch fluorescence ratio is on record?
The switch fluorescence ratio was 0.9853 ± 0.0074.

With ACAATCCGGG as the sequence, how does the switch fluorescence ratio read?
Its switch fluorescence ratio is 1.01 ± 0.032.

How did the switch fluorescence ratio turn out when ACAATCGGAA was run?
The switch fluorescence ratio was 1.025 ± 0.0014.

ACAATTGCTA was tested. Which switch fluorescence ratio did it give?
Its switch fluorescence ratio is 0.994 ± 0.03.

For ACACAAGGTC, which switch fluorescence ratio is on record?
The switch fluorescence ratio was 1.03 ± 0.041.

Which switch fluorescence ratio does the source give for ACACAATCAT here?
The switch fluorescence ratio was 1.02 ± 0.011.

For ACACATGTAT, which switch fluorescence ratio is on record?
The switch fluorescence ratio was 1 ± 0.045.

How did the switch fluorescence ratio turn out when ACACCATTAA was run?
Its switch fluorescence ratio is 1.02 ± 0.03.

ACACCCGGCC was tested. Which switch fluorescence ratio did it give?
The switch fluorescence ratio was 1.28 ± 0.068.

With ACACCCTTAT as the sequence, how does the switch fluorescence ratio read?
Its switch fluorescence ratio is 1.127 ± 0.011.

With ACACCGGGGG as the sequence, how does the switch fluorescence ratio read?
The switch fluorescence ratio was 1.13 ± 0.17.

How did the switch fluorescence ratio turn out when ACACGGGGGG was run?
The switch fluorescence ratio was 1.04 ± 0.022.

For ACACGGTGAT, which switch fluorescence ratio is on record?
Its switch fluorescence ratio is 1.056 ± 0.0056.

For ACACGGTGGG, which switch fluorescence ratio is on record?
Its switch fluorescence ratio is 0.975 ± 0.054.

For ACACGTGCTA, which switch fluorescence ratio is on record?
The switch fluorescence ratio was 1.01 ± 0.024.

How did the switch fluorescence ratio turn out when ACACGTTACA was run?
The switch fluorescence ratio was 1.62 ± 0.082.

With ACACTCGTCT as the sequence, how does the switch fluorescence ratio read?
The switch fluorescence ratio was 1.009 ± 0.0051.

ACACTGCCGG was tested. Which switch fluorescence ratio did it give?
The switch fluorescence ratio was 1.04 ± 0.026.

For ACACTGTATC, which switch fluorescence ratio is on record?
Its switch fluorescence ratio is 1.21 ± 0.038.

For ACACTTGAAT, which switch fluorescence ratio is on record?
The switch fluorescence ratio was 0.996 ± 0.027.

How did the switch fluorescence ratio turn out when ACACTTGCGC was run?
Its switch fluorescence ratio is 1.02 ± 0.038.

How did the switch fluorescence ratio turn out when ACACTTGTTG was run?
Its switch fluorescence ratio is 0.963 ± 0.028.

Which switch fluorescence ratio does the source give for ACAGAAGATG here?
Its switch fluorescence ratio is 1.003 ± 0.0087.

Which switch fluorescence ratio does the source give for ACAGAAGCTT here?
The switch fluorescence ratio was 1.03 ± 0.015.

How did the switch fluorescence ratio turn out when ACAGAAGTCT was run?
The switch fluorescence ratio was 1.03 ± 0.096.

For ACAGCGGGGT, which switch fluorescence ratio is on record?
The switch fluorescence ratio was 1 ± 0.021.

With ACAGGACGGA as the sequence, how does the switch fluorescence ratio read?
The switch fluorescence ratio was 1.03 ± 0.013.

For ACAGGAGAAA, which switch fluorescence ratio is on record?
Its switch fluorescence ratio is 1.01 ± 0.019.

For ACAGGAGGAG, which switch fluorescence ratio is on record?
The switch fluorescence ratio was 0.9859 ± 3.2e-05.

With ACAGGATTGG as the sequence, how does the switch fluorescence ratio read?
The switch fluorescence ratio was 1.01 ± 0.017.

Which switch fluorescence ratio does the source give for ACAGGCGTCA here?
Its switch fluorescence ratio is 1.02 ± 0.024.

For ACAGGGAAAG, which switch fluorescence ratio is on record?
Its switch fluorescence ratio is 1.04 ± 0.034.

ACAGGGCCGT was tested. Which switch fluorescence ratio did it give?
The switch fluorescence ratio was 1.03 ± 0.033.

With ACAGGGTAGC as the sequence, how does the switch fluorescence ratio read?
Its switch fluorescence ratio is 1 ± 0.015.

For ACAGGGTTTC, which switch fluorescence ratio is on record?
Its switch fluorescence ratio is 0.985 ± 0.015.

With ACAGGTAAA as the sequence, how does the switch fluorescence ratio read?
The switch fluorescence ratio was 1.02 ± 0.028.

How did the switch fluorescence ratio turn out when ACAGGTAGCT was run?
The switch fluorescence ratio was 1.06 ± 0.056.

For ACAGGTAGGT, which switch fluorescence ratio is on record?
The switch fluorescence ratio was 1 ± 0.055.

For ACAGGTTGGA, which switch fluorescence ratio is on record?
The switch fluorescence ratio was 1.03 ± 0.023.

For ACAGTAGTTA, which switch fluorescence ratio is on record?
The switch fluorescence ratio was 1.046 ± 0.0065.

For ACAGTGTGGG, which switch fluorescence ratio is on record?
Its switch fluorescence ratio is 1.05 ± 0.018.

Which switch fluorescence ratio does the source give for ACAGTTAGGT here?
The switch fluorescence ratio was 0.992 ± 0.034.

For ACAGTTCTAC, which switch fluorescence ratio is on record?
Its switch fluorescence ratio is 1.03 ± 0.031.

ACAGTTGGGC was tested. Which switch fluorescence ratio did it give?
The switch fluorescence ratio was 0.9946 ± 0.004.

For ACATAATGCC, which switch fluorescence ratio is on record?
The switch fluorescence ratio was 0.933 ± 0.047.

With ACATACAATT as the sequence, how does the switch fluorescence ratio read?
Its switch fluorescence ratio is 1.23 ± 0.091.

With ACATACTGCA as the sequence, how does the switch fluorescence ratio read?
The switch fluorescence ratio was 1.29 ± 0.14.

Which switch fluorescence ratio does the source give for ACATAGATTA here?
The switch fluorescence ratio was 1.03 ± 0.016.

Which switch fluorescence ratio does the source give for ACATATAGGG here?
Its switch fluorescence ratio is 1.04 ± 0.021.

For ACATATTACT, which switch fluorescence ratio is on record?
The switch fluorescence ratio was 1.13 ± 0.0066.

ACATCAAAAT was tested. Which switch fluorescence ratio did it give?
Its switch fluorescence ratio is 1.001 ± 0.0015.

Which switch fluorescence ratio does the source give for ACATCACTAA here?
Its switch fluorescence ratio is 1.306 ± 0.0079.

Which switch fluorescence ratio does the source give for ACATCAGCGG here?
Its switch fluorescence ratio is 0.958 ± 0.031.

ACATCCTTCG was tested. Which switch fluorescence ratio did it give?
Its switch fluorescence ratio is 1.7 ± 0.25.

For ACATCGGGTG, which switch fluorescence ratio is on record?
The switch fluorescence ratio was 1.42 ± 0.59.

With ACATGAAGGT as the sequence, how does the switch fluorescence ratio read?
The switch fluorescence ratio was 1.006 ± 0.0035.

With ACATGCAAGC as the sequence, how does the switch fluorescence ratio read?
The switch fluorescence ratio was 1.64 ± 0.12.

For ACATGCATTA, which switch fluorescence ratio is on record?
Its switch fluorescence ratio is 1.02 ± 0.026.

How did the switch fluorescence ratio turn out when ACATGCGCGG was run?
Its switch fluorescence ratio is 0.9999 ± 0.0079.

For ACATGCGGGG, which switch fluorescence ratio is on record?
The switch fluorescence ratio was 1.019 ± 0.01.

Which switch fluorescence ratio does the source give for ACATGCTCCC here?
Its switch fluorescence ratio is 1.73 ± 0.13.

How did the switch fluorescence ratio turn out when ACATGGTTTT was run?
Its switch fluorescence ratio is 1.01 ± 0.017.

With ACATGTTAGT as the sequence, how does the switch fluorescence ratio read?
The switch fluorescence ratio was 1.006 ± 0.0028.

With ACATGTTATA as the sequence, how does the switch fluorescence ratio read?
The switch fluorescence ratio was 1 ± 0.049.

ACATTAAGTA was tested. Which switch fluorescence ratio did it give?
Its switch fluorescence ratio is 1.02 ± 0.037.

With ACATTAGGGT as the sequence, how does the switch fluorescence ratio read?
The switch fluorescence ratio was 1.01 ± 0.012.

For ACATTATAAT, which switch fluorescence ratio is on record?
The switch fluorescence ratio was 1.041 ± 0.0056.

With ACATTCCAAA as the sequence, how does the switch fluorescence ratio read?
The switch fluorescence ratio was 1.03 ± 0.013.

With ACATTCGCGC as the sequence, how does the switch fluorescence ratio read?
Its switch fluorescence ratio is 1.148 ± 0.0066.

ACATTCGGGC was tested. Which switch fluorescence ratio did it give?
Its switch fluorescence ratio is 1.02 ± 0.041.

ACATTGAAAA was tested. Which switch fluorescence ratio did it give?
The switch fluorescence ratio was 0.996 ± 0.036.

ACATTGGCGA was tested. Which switch fluorescence ratio did it give?
Its switch fluorescence ratio is 0.988 ± 0.044.

How did the switch fluorescence ratio turn out when ACATTTAATT was run?
The switch fluorescence ratio was 0.983 ± 0.013.

ACATTTAGGC was tested. Which switch fluorescence ratio did it give?
The switch fluorescence ratio was 1.048 ± 0.0088.

Which switch fluorescence ratio does the source give for ACATTTGCAG here?
Its switch fluorescence ratio is 1.02 ± 0.033.

With ACATTTTGCG as the sequence, how does the switch fluorescence ratio read?
The switch fluorescence ratio was 0.99926 ± 0.00068.

Which switch fluorescence ratio does the source give for ACATTTTGTT here?
The switch fluorescence ratio was 0.972 ± 0.051.

How did the switch fluorescence ratio turn out when ACCAACTCAA was run?
Its switch fluorescence ratio is 1.18 ± 0.037.

Which switch fluorescence ratio does the source give for ACCAAGAGCG here?
The switch fluorescence ratio was 1.05 ± 0.023.

How did the switch fluorescence ratio turn out when ACCAAGGGCT was run?
The switch fluorescence ratio was 0.996 ± 0.034.

For ACCAAGGGTG, which switch fluorescence ratio is on record?
The switch fluorescence ratio was 1.135 ± 0.0042.

Which switch fluorescence ratio does the source give for ACCAATAAAC here?
The switch fluorescence ratio was 1.09 ± 0.033.

ACCAATCCTG was tested. Which switch fluorescence ratio did it give?
The switch fluorescence ratio was 1 ± 0.013.

With ACCAATCGGG as the sequence, how does the switch fluorescence ratio read?
Its switch fluorescence ratio is 0.9917 ± 0.002.

How did the switch fluorescence ratio turn out when ACCACAGAGC was run?
The switch fluorescence ratio was 1.04 ± 0.051.

With ACCACGGTGT as the sequence, how does the switch fluorescence ratio read?
Its switch fluorescence ratio is 2.12 ± 0.075.

For ACCACTAAAA, which switch fluorescence ratio is on record?
Its switch fluorescence ratio is 1.04 ± 0.019.
